From PMC9889962 (Antibody Therapeutics, 2023)

Key:
[1] = molecular target: SARS-CoV-2 Alpha variant B.1.1.7, S1 subunit (SARS-CoV-2); assay: SPR; conditions: both partners purified
[2] = molecular target: SARS-CoV-2 Omicron B.1.1.529 RBD only (SARS-CoV-2, UniProt P0DTC2); assay: SPR; conditions: both partners purified

B1: LiVE-Longer YTE chimera (ACE-2 LVE/STR-YTE fusion protein) (Fc fusion)
chain: QSTIEEQAKLFLDKFNVEAEDLFYQSSLASWNYNTNITEENVQNMNNAGDKWSAFLKEQSTLAQMYPLQEIQELTVKLQLQALQQNGSSVLSEDKSKRLNTILNTMSTIYSTGKVCNPDNPQECLLLEPGLNEIMANSLDYNERLWAWESWRSEVGKQLRPLYEEYVVLKNEMARANHYEDYGDYWRGDYEVNGVDGYDYSRGQLIEDVEHTFEEIKPLYEHLHAYVRAKLMNAYPSYISPIGCLPAHLLGDMWGRFWTNLYSLTVPFGQKPNIDVTDAMVDQAWDAQRIFKEAEKFFVSVGLPNMTQGFWENSMLTDPGNVQKAVCHPTAWDLGKGDFRILMCTKVTMDDFLTAHHEMGHIQYDMAYAAQPFLLRNGANEGFHEAVGEIMSLSAATPKHLKSIGLLSPDFQEDNETEINFLLKQALTIVGTLPFTYMLEKWRWMVFKGEIPKDQWMKKWWEMKREIVGVVEPVPHDETYCDPASLFHVSNDYSFIRYYTRTLYQFQFQEALCQAAKHEGPLHKCDISNSTEAGQKLFNMLRLGKSEPWTLALENVVGAKNMNVRPLLNYFEPLFTWLKDQNKNSFVGWSTDWSPYADQSIKVRISLKSALGDKAYEWNDNEMYLFRSSVAYAMRQYFLKVKNQMILFGEEDVRVANLKPRISFNFFVTAPKNVSDIIPRTEVEKAIRMSRSRINDAFRLNDNSLEFLGIQPTLGPPNQPPVS
Kd [1]: 0.093 nM | Kd [2]: 0.402 nM
